{
  "source": "paper PMC3119658",
  "about": "“The Naturally Processed CD95L Elicits a c-Yes/Calcium/PI3K-Driven Cell Migration Pathway” (PLoS Biology, 2011)",
  "molecules": {"B1": {"name": "metalloprotease-cleaved CD95L (ligand, UniProt P48023 127-281, looked up)", "chain": "LEKQIGHPSPPPEKKELRKVAHLTGKSNSRSMPLEWEDTYGIVLLSGVKYKKGGLVINETGLYFVYSKVYFRGQSCNNLPLSHKVYMRNSKYPQDLVMMEGKMMSYCTTGQMWARSSYLGAVFNLTSADHLYVNVSELSLVNFEESQTFFGLYKL", "notes": "In the functional row the CD95L is the soluble ligand in sera of SLE patients, not the 293-made preparation; also called cl-CD95L; naturally processed CD95L; source: 293 cells transfected with wild type CD95L cDNA; exosome-free supernatant, concentrated (10 kDa cut-off) and dialyzed against PBS"}},
  "key": {"[1]": {"target": "Ig-CD95L (extracellular region of CD95L fused to a dimerization domain (Ig) of the LIF receptor gp190) (UniProt P48023)", "test": "SEC; gel filtration analysis, unpublished data"}, "[2]": {"target": "the molecule itself", "test": "SEC; size exclusion on S-200-HR Sephacryl columns; fractions harvested and cl-CD95L dosed by ELISA"}},
  "data": [
    {"molecule": "Ig-CD95L (extracellular region of CD95L fused to a dimerization domain (Ig) of the LIF receptor gp190) (from UniProt P48023 105-281) (ligand)", "values": [
      {"measurement": "stoichiometry N", "setting": "[1]", "value": 12}
    ]},
    {"molecule": "B1", "values": [
      {"measurement": "stoichiometry N", "setting": "[2]", "value": 3}
    ]}
  ]
}
